T1: GST::ETS-5 (Caenorhabditis elegans, UniProt Q18579 1-208)
T1 sequence: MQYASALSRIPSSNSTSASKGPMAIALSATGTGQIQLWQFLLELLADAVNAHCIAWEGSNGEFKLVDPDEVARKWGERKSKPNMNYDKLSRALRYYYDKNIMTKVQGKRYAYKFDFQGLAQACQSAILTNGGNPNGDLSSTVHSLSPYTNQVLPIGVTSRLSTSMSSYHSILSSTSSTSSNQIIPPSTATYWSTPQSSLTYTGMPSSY


Experiments:
[1] = biological target: T1, GST::ETS-5; experiment: competition; scrambled competitor 10-500x molar excess over labeled N1; did not block; EMSA: 1 ug GST::ETS-5 or 2 ug GST, 0.1 pmol 3'-biotin duplex, room temperature 20 min, 6% polyacrylamide gel in 0.5x TBE; binding buffer, salt and pH not stated; conditions: protein: recombinant; tags: N-terminal GST (pGEX); label: unlabeled; blunt
[2] = biological target: T1, GST::ETS-5; experiment: EMSA; also blocked by excess unlabeled probe (10-500x); EMSA: 1 ug GST::ETS-5 or 2 ug GST, 0.1 pmol 3'-biotin duplex, room temperature 20 min, 6% polyacrylamide gel in 0.5x TBE; binding buffer, salt and pH not stated; conditions: protein: recombinant; tags: N-terminal GST (pGEX); label: 3'-biotin (labeled probe); blunt

Row | Binder | binding result [1] | binding result [2]
1 | scrambled competitor (dsDNA) DNA 1: CTGACCCCGTGTCGCTAATAGACTCAGTTACGCAAGATGG DNA 2: CCATCTTGCGTAACTGAGTCTATTAGCGACACGGGGTCAG | no binding | –
2 | gcy-9 promoter ETS-site probe (45 bp) (dsDNA) DNA 1: ATCCACTTCCGATGGGCCCTTCCGGCATGATAAGAAGTGAGTGGC DNA 2: GCCACTCACTTCTTATCATGCCGGAAGGGCCCATCGGAAGTGGAT | – | binds

From publication PMC3315506, “A Single Gene Target of an ETS-Family Transcription Factor Determines Neuronal CO2-Chemosensitivity”
